Reference: patent US6218168A, “Process for preparing O-acetylserine, L-cysteine and L-cysteine-related products” (Consortium fur elektrochemische Inudstrie GmbH, priority 1995, dated 2001)

B1: cysEX: mutant Thr167->Ala167 (protein, UniProt P0A9D4 1-273, looked up, variant T167A)
Serine acetyltransferase: MSCEELEIVWNNIKAEARTLADCEPMLASFYHATLLKHENLGSALSYMLANKLSSPIMPAIAIREVVEEAYAADPEMIASAACDIQAVRTRDPAVDKYSTPLLYLKGFHALQAYRIGHWLWNQGRRALAIFLQNQVSVTFQVDIHPAAKIGRGIMLDHATGIVVGEAAVIENDVSILQSVTLGGTGKSGGDRHPKIREGVMIGAGAKILGNIEVGRGAKIGAGSVVLQPVPPHTTAAGVPARIVGKPDSDKPSMDMDQHFNGINHTFEYGDGI
B2: cysEXII: triple mutant Lys97->Gln97, Gly238->Ser238, Phe267->Leu267 (protein, UniProt P0A9D4 1-273, looked up, variant K97Q G238S F267L)
Serine acetyltransferase: MSCEELEIVWNNIKAEARTLADCEPMLASFYHATLLKHENLGSALSYMLANKLSSPIMPAIAIREVVEEAYAADPEMIASAACDIQAVRTRDPAVDQYSTPLLYLKGFHALQAYRIGHWLWNQGRRALAIFLQNQVSVTFQVDIHPAAKIGRGIMLDHATGIVVGETAVIENDVSILQSVTLGGTGKSGGDRHPKIREGVMIGAGAKILGNIEVGRGAKIGAGSVVLQPVPPHTTAASVPARIVGKPDSDKPSMDMDQHFNGINHTLEYGDGI
B3: cysEV: triple mutant Val237, Ser238, Ile256 (protein, UniProt P0A9D4 1-273, looked up, variant A237V G238S M256I)
Serine acetyltransferase: MSCEELEIVWNNIKAEARTLADCEPMLASFYHATLLKHENLGSALSYMLANKLSSPIMPAIAIREVVEEAYAADPEMIASAACDIQAVRTRDPAVDKYSTPLLYLKGFHALQAYRIGHWLWNQGRRALAIFLQNQVSVTFQVDIHPAAKIGRGIMLDHATGIVVGETAVIENDVSILQSVTLGGTGKSGGDRHPKIREGVMIGAGAKILGNIEVGRGAKIGAGSVVLQPVPPHTTAVSVPARIVGKPDSDKPSMDIDQHFNGINHTFEYGDGI
B4: cysEVI: double mutant Ser238, Ile256 (protein, UniProt P0A9D4 1-273, looked up, variant G238S M256I)
Serine acetyltransferase: MSCEELEIVWNNIKAEARTLADCEPMLASFYHATLLKHENLGSALSYMLANKLSSPIMPAIAIREVVEEAYAADPEMIASAACDIQAVRTRDPAVDKYSTPLLYLKGFHALQAYRIGHWLWNQGRRALAIFLQNQVSVTFQVDIHPAAKIGRGIMLDHATGIVVGETAVIENDVSILQSVTLGGTGKSGGDRHPKIREGVMIGAGAKILGNIEVGRGAKIGAGSVVLQPVPPHTTAASVPARIVGKPDSDKPSMDIDQHFNGINHTFEYGDGI
B5: cysEXXIII: triple mutant Ala167, Val237, Ser238 (protein, UniProt P0A9D4 1-273, looked up, variant T167A A237V G238S)
Serine acetyltransferase: MSCEELEIVWNNIKAEARTLADCEPMLASFYHATLLKHENLGSALSYMLANKLSSPIMPAIAIREVVEEAYAADPEMIASAACDIQAVRTRDPAVDKYSTPLLYLKGFHALQAYRIGHWLWNQGRRALAIFLQNQVSVTFQVDIHPAAKIGRGIMLDHATGIVVGEAAVIENDVSILQSVTLGGTGKSGGDRHPKIREGVMIGAGAKILGNIEVGRGAKIGAGSVVLQPVPPHTTAVSVPARIVGKPDSDKPSMDMDQHFNGINHTFEYGDGI
B6: cysE-Del255: carboxyterminal deletion of 18 amino acids, terminal Asp255 (protein, UniProt P0A9D4 1-255, looked up, fragment)
chain: MSCEELEIVWNNIKAEARTLADCEPMLASFYHATLLKHENLGSALSYMLANKLSSPIMPAIAIREVVEEAYAADPEMIASAACDIQAVRTRDPAVDKYSTPLLYLKGFHALQAYRIGHWLWNQGRRALAIFLQNQVSVTFQVDIHPAAKIGRGIMLDHATGIVVGETAVIENDVSILQSVTLGGTGKSGGDRHPKIREGVMIGAGAKILGNIEVGRGAKIGAGSVVLQPVPPHTTAAGVPARIVGKPDSDKPSMD

Assays:
[1] = biological target: serine acetyltransferase; test: Serine acetyltransferase enzyme activity test with and without L-cysteine (inhibitor constant Ki, specific activity); type: biochemical, E. coli; details: for Ki: inhibitor L-cysteine
From the text: Any method which enables the activity of the serine acetyltransferase to be determined in the presence of cysteine can be used for determining the cysteine sensitivity of this enzyme. For example, the serine acetyltransferase activity can be determined using the method described by Kredich and Tomkins, J. Biol. Chem. 241: 4955-4965 (1966). In this test, the enzyme test mixture contains the substrate, L-serine, and the cofactor, acetyl-coenzyme A. The reaction is started by adding enzyme and monitored, in a spectro photometer, by observing the decrease in absorption at 232 nm which is elicited by the cleavage of the thioester bond in the acetyl-coenzyme A.
The above-described enzyme test is suitable for determining the cysteine sensitivity of any serine acetyltransferase enzyme, including the enzymes which have a modified carboxyl terminus. Inhibition of the serine acetyltransferase activity is tested in the presence of differing concentrations of L-cysteine in the reaction mixture. The catalytic activity of the different serine acetyltransferase enzymes is determined in the presence and absence of L-cysteine, and the inhibitor constant, Ki, is ascertained from this (Kredich and Tomkins, J. Biol. Chem., 241, 4955-4965 (1966)).
In order to investigate the biochemical basis of the cysteine secretion of the revertants, the activity of the serine acetyltransferase was determined in vitro, and the ability of cysteine to inhibit the enzyme was measured. For the determination, use was made of S30 extracts (cell homogenates centrifuged at 30,000 g and 4° C. for 20 minutes) of the selected revertants, the starting strains and the comparison strain, E. coli W3110 (ATTC 27325).
The biochemical parameters such as enzyme activity and inhibitor constant, Ki, were determined in an analogous manner to that described in Example 1.
The plasmids resulting from this cloning were designated pACYC184/cysE-Del in accordance with the extent of their deletion (cf. FIG. 9 for the plasmid map). Determination of the enzymic activity and the inhibitor constant, Ki, and also the cross-feeding test, were carried out in analogy with the description in Example 1. DNA sequence analysis was used to confirm that the deletions had been correctly introduced.
Determination of the enzymic activity and of the inhibitor constant Ki, and also the cross-feeding test, were carried out in analogy with the description in Example 1.

[2] = test system: production strain JM15; test: Cysteine production in 1 L fermenter, JM15 with plasmid-encoded cysE alleles; type: cell-based, E. coli; details: 48 h, JM15 transformed with plasmid
Procedure: Influence of different, plasmid-encoded cysE alleles on the production of L-cysteine or products derived from L-cysteine in a 1 L fermenter using the host strain JM15 20 mL of LB medium (1% tryptone, 0.5% yeast extract, 0.5% NaCl) contained in a 100 mL Erlenmeyer flask were inoculated with a single colony of the production strain JM15 (CGSC#5042) which had been transformed with the respective cysE plasmid.
After having been incubated for 7 hours in a bacterial shaker (30° C., 150 rpm), the respective preliminary cultures were transferred to 100 mL of SM1 medium. The SM1 medium contained 5 g/L glucose, 5 mg/L vitamin B1, 3 g/l KH2 PO4, 12 g/L K2 HPO4, 0.3 g/L MgSO4×7 H2 O, 0.1 g/L NaCl, 5 g/L (NH4)2 SO4, 14.7 mg/L CaCl2×2 H2 O, 2 mg/L FeSO4×2 H2 O, 1 g/L Na3 citrate×2 H2 O, 1 ml/L trace element solution and 25 mg/L tetracycline. The trace element solution was composed of 0.15 g/L Na2 MoO4×2 H2 O, 2.5 g/L H3 BO3, 0.7 g/L CoCl2×6 H2 O, 0.25 g/L CuSO4×5 H2 O, 1.6 g/L MnCl2×4 H2 O and 0.3 g/L ZnSO4×7 H2 O. The cultures were shaken in 1 L Erlenmeyer flasks at 30° C. and at 150 rpm for 17 h. After this incubation, the OD600 was between 4 and 5. The subsequent fermentation was carried out in Braun-Melsungen BIOSTAT M research fermenters. A culturing vessel having a total volume of 2 L was used.
The fermentation medium contained 15 g/L glucose, 5 g/L NaCl, 0.3 g/L MgSO4×7 H2 O, 15 mg/L CaCl2×2 H2 O, 75 mg/L FeSO4×7 H2 O, 1 g/L Na3 citrate×2 H2 O, 1.5 g/L KH2 PO4, 1 mL of trace element solution (see above), 5 mg/L vitamin B1, 2.5 g/L yeast extract (Difco), 2.5 g/L tryptone (Difco) and 25 mg/L tetracycline.
The glucose concentration in the fermenter was initially adjusted to a value of 15 g/L by pumping in a 700 g/L (w/v) (sterilized) glucose solution, and the pH was adjusted to 7.0 by pumping in a 25% NH4 OH solution. After an OD600 of 10 had been reached, 300 mg per hour were supplied from a sterile 100 g/L (w/v) stock solution of thiosulfate. 100 mL of preliminary culture were pumped into the fermenter vessel for the inoculation. The starting volume was approximately 1 L. The cultures were initially stirred at 400 rpm and aerated with 1.5 vvm of compressed air which had been sterilized by passing through a sterile filter. The fermentation was carried out at a temperature of 30° C.
The pH was maintained at a value of 7.0 by means of automatic correction with 25% NH4 OH. The oxygen saturation in the fermentation broth had at no time during the fermentation to fall below 20%; the stirring speed was used to ensure this. The glucose content of the nutrient solution, the optical density and the cysteine content were determined at two- to three-hourly intervals. The glucose content was determined enzymically using a glucose analyzer from YSI. The concentration of the glucose was adjusted to between 10 and 20 g/L by means of continuously feeding in this compound.
The content of cysteine in the medium was determined […] from the cell-free super-natant of the sample using the method of Gaitonde, M. K. (1967), Biochem. J. 104, 627-633.
The fermentation was terminated after 44-50 h.

[3] = test system: JM15attλ::cysE strains; test: Cysteine production in 1 L fermenter, chromosomally encoded cysE alleles; type: cell-based, E. coli; details: single chromosomal copy
Procedure: For the purpose of being integrated into the chromosomal attachment site (attλ), the cysE alleles cysEIV, cysEX and cysEXI were cloned into the plasmid pRS551 (Simons et al., 1987, Gene 53: 85-96). For this, each cysE allele was amplified by PCR from the corresponding cysE plasmid. The oligonucleotides which were used, i.e. cysE-fwl and cysE-revl, are described in Example 1. The amplification was carried out as described in Example 3. The resulting fragments were cleaved with EcoRI/BamHI, purified through an agarose gel and ligated into vector pRS551 which had been cleaved with EcoRI and BamHI. This afforded the vector pRS551-based recombinant plasmids pRScysEIV, X and XI.
A heterogeneous lambda lysate, which contained recombinant cysE allele-carrying λRS45 derivatives in addition to λRS45 phages, was produced in vivo by homologous recombination by means of preparing a plate lysate on a pRScysE-carrying recA^+ strain (e.g. YMC9, ATCC 3397) using the λRS45 phage (Simons et al., 1987, Gene 53: 85-96).
The cysE strain JM15, which was infected with the heterogeneous lambda lysate and subsequently plated on kanamycin-containing (25 mg/L) LB plates, was used for selecting for the recombinant RS45 derivatives. The lysogenic, kanamycin-resistant clones which were obtained were then tested for their ability to grow on minimal medium plates without cysteine. A clone which was in each case cysteine-prototrophic was selected and used for preparing a homogeneous cysE λ lysate (by means of UV induction, Simons et al., 1987, Gene 53: 85-96).
The JM15 stain was infected with these homogeneous cysE λ lysates which were obtained in each case. The resulting JM15attλ::cysE strains were cultured as described in Example 6. Instead of tetracycline, the respective media in each case contained 25 mg of kanamycin per L as the selection agent.

[4] = Table 1a, 1 mM L-serine, 0.1 mM acetyl-CoA
[5] = Table 1a, serine acetyltransferase activity
[6] = Table 2, alleles from chemical mutagenesis
[7] = Table 4, alleles from site-specific mutagenesis
[8] = Table 1b, carboxyterminal deletions

Molecule	Ki [1, 4] [µM]	spec. act. [1, 5] [µmol/min/mg]	Ki [1, 6] [µM]	Cysteine yield [2] [g/L]	yields of cysteine [3] [g/L]	Ki [1, 7] [µM]	spec. act. [1, 8] [μmol/min x mg]	Ki [1, 8] [µM]	Ki ([1]; Table 6, carboxyterminal deletions) [µM]
B1	50	0.156	50	3.4	1.8	–	–	–	–
B2	40	0.254	40	1.2	–	–	–	–	–
B3	10	0.246	–	1.3	–	10	–	–	–
B4	10	0.075	–	1.4	–	10	–	–	–
B5	2300	0.085	–	2.7	–	2300	–	–	–
B6	–	–	–	3.9	–	–	0.624	30	30
